Assay results taken from patent publication US20180346588A1 (MOGAM INSTITUTE FOR BIOMEDICAL RESEARCH, published 2018).
Residue numbers refer to the chain shown, from its start.

B1: clone 2-30 (MS502 heavy chain variable region mutation antibody) (antibody, V domains shown)
VH: EVQLLESGGGLVQPGGSLRLSCAASGFTFSNYAMSWVRQAPGKGLEWVSGIPPDSNSKYYADSVRGRFTVSRDNSKNTLYLQMNSLRAEDTAVYYCAKNMRTFDYWGQGTLVTVSS
VL: QSVLTQPPSASGTPGQRVTISCTGSSSNIGSNAVSWYQQLPGTAPKLLIYYNSKRPSGVPDRFSGSKSGTSASLAISGLRSEDEADYYCGSWDSSLNGYVFGGGTKVTVLG
notes: SPR done with IgG (human heavy chain constant region vector, MS502 light chain)
B2: clone 2-78 (MS502 heavy chain variable region mutation antibody) (antibody, V domains shown)
VH: B1 VH with N56G, R101F, T102S
VL: B1 VL
notes: as for B1
B3: clone 2-30-C2G4 antibody (antibody, V domains shown)
VH: B1 VH
VL: B1 VL with S94P
notes: IgG (human IgG1 heavy chain constant region; light chain constant region said to be human kappa)
B4: clone 56-C2G4 antibody (antibody, V domains shown)
VH: B1 VH with N56A, R101L, T102S
VL: B1 VL with S94P
notes: as for B3
B5: clone 2-78-C2G4 antibody (antibody, V domains shown)
VH: B1 VH with N56G, R101F, T102S
VL: B1 VL with S94P
notes: as for B3
B6: clone 2-73-C2G4 antibody (antibody, V domains shown)
VH: B1 VH with D54N, N56D, R101L, T102S
VL: B1 VL with S94P
notes: as for B3
B7: clone 56 (MS502 heavy chain variable region mutation antibody) (antibody, V domains shown)
VH: B1 VH with N56A, R101L, T102S
VL: B1 VL
notes: as for B1
B8: clone MS502 anti-MSLN antibody (antibody, V domains shown)
VH: B1 VH with N56G, R101L, T102S
VL: B1 VL
notes: SPR and FACS done with IgG: human IgG1 heavy chain constant region
B9: clone MI323 anti-MSLN antibody (antibody, V domains shown)
VH: EVQLQQSGPELVKPGTSVKISCKASGYSFTSYFIQWVKQRPGQGLEWIGWIFPGSGNTKYNEMFKGKATLAADTSSSTAYMQLSSLTSEDSAVYFCARSGGYQYYFDYWGQGTSVTVSS
VL: DIVMTQSHKFMSTSVGDRVSITCKASQDVSTAVAWYQQKPGQSPKLLIYSASYRYPGVPDRFTGSGSGTDFTFTISSVQAEDLALYYCQQHYSTPWTFGGGTKLEIKR
notes: also called M1323
B10: clone MI403 anti-MSLN antibody (antibody, V domains shown)
VH: EVQVVESGGGLVKPGGSLKLSCAASGFAFSSYDMSWVRQTPEKRLEWVAYISSGGGSTYYPDTVKGRFTISRDNAKNTLYLQMNSLKSEDTAMYYCARQGTAVKNYWYFDVWGAGTSVTVSS
VL: DIVMTQSPASLAVSLGQRATISCRASQSVSTSSSSYVHWYQQRPGQPPKLLIKYASNLESGVPARFSGSGSGTDFTLNIHPVEEEDTGTYYCQHSWEIPFTFGSGTKLEIKR
notes: also called M1403
B11: clone MI329 anti-MSLN antibody (antibody, V domains shown)
VH: EVMLVESGGDLVKPGGSLKLSCAASGFTFSSYAMSWVRRTPEKRLEWVATINSDGSYTFYPDSVKGRFTISRDNAKNTLYLQMNSLRSEDTAMYYCARWGENWYFDVWGAGTTVTVSS
VL: DVVMTQTPLSLPVSLGDQASISCRSSQSLVHSNGNTYLHWYLQKPGQSPKLLIYKVSNRFSGVPDRFSGSGSGTDFTLKISRVEAEDLGIYFCSQSTHFPRTFGGATKLELKR
notes: also called M1329
B12: clone MI407 anti-MSLN antibody (antibody, V domains shown)
VH: EVKLVESGGGLVKPGGSLKLSCAASGFPFSNYDMSWVRQTPEKRLEWVAYISSGGGNTYYPDTVKGRFTISRDNAKNTLYLQMSSLKSEDTALYFCVRQGTSVESYWYFDVWGAGTTVTVSS
VL: B10 VL with M4L, V37I, R43K, E85D, G88A, K107E
notes: also called M1407
B13: clone MS505 anti-MSLN antibody (antibody, IgG1, V domains shown)
VH: B1 VH with G50A, P52Y, S55G, N56S, S57N, R65K, K98R, M100A, R101Y
VL: B1 VL with Q16R, T23S, K54Q, V107L
notes: From a phage display synthetic scFv library
B14: clone MS501 anti-MSLN antibody (antibody, V domains shown)
VH: B1 VH with P52Y, N56G, K58T, R65K, V70I, K98R, M100I, R101Y
VL: B1 VL with T23S, S53N, K54Q, N97S, V107L
notes: as for B13
B15: clone MS504 anti-MSLN antibody (antibody, IgG1, V domains shown)
VH: B1 VH with G50S, P52Y, D54N, S55G, N56S, R65K, V70I, T91M, M100L, R101L
VL: B1 VL with T13P, S31N, A33S, N52D, K54H, S77G, S91A, S94D, G98A, V107L
notes: as for B13
B16: clone MS502-1 anti-MSLN antibody (antibody, V domains shown)
VH: B1 VH with N56G, R101L, T102S
VL: B1 VL with T23I, G24C, V107L
B17: clone MS503 anti-MSLN antibody (antibody, IgG1, V domains shown)
VH: B1 VH with G50S, P52Y, D54G, S55D, N56G, K58T, R65K, V70I, M100A, R101F
VL: B1 VL with T23S, K54H, S91T, N97S, V107L
notes: as for B13
B18: clone MS506 anti-MSLN antibody (antibody, IgG1, V domains shown)
VH: B1 VH with G50S, P52Y, D54G, N56G, K58T, R65K, V70I, K98R, M100L, R101Y
VL: B1 VL with S35T, N52D, K54H, L79P, S91A, N97S, G98A, V107L
notes: as for B13

Each binder was assayed against T1, recombinant human mesothelin (MSLN) (human, UniProt Q13421 296-580, limits assumed) (assay: SPR, Biacore T-200; MSLN amine-coupled to CM5 chip, IgG in flow).
T1 construct: also called human MSLN; recombinant human MSLN
Experimental: The quantitative binding force (affinity) of each of the purified anti-MSLN antibodies, i.e., MS502 clone heavy chain variable region mutation antibodies 56, 2-30, 2-73, 2-78, and the combination antibodies of the C2G4 light chain variable region and the heavy chain variable region mutation antibodies including 56-C2G4, 2-30-C2G4, 2-73-C2G4, 2-78-C2G4 with regard to recombinant human mesothelin (MSLN) was measured by using a Biacore T-200 (GE Healthcare, U.S.A.) biosensor. […] Then, the clone 56 antibody, the clone 2-30 antibody, the clone 2-73 antibody, the clone 2-78 antibody, the clone 56-C2G4 antibody, the clone 2-30-C2G4 antibody, the clone 2-73-C2G4 antibody, and the clone 2-78-C2G4 antibody serially diluted with HBS-EP buffer (10 mM HEPES, pH7.4, 150 mM NaCl, 3 mM EDTA, 0.005% surfactant P20) were allowed to flow at a concentration range of 0.078 nM to 5 nM and at a flow rate of 30 μL/min for association of 120 seconds and dissociation of 1800 seconds. The dissociation of the antibody bound to the MSLN was induced by flowing 10 mM Glycine-HCl pH 1.5 at a flow rate of 30 μL/min for 30 seconds (Table 17). The affinity was obtained as movement speed constants (Kₒₙ and Koff) and an equilibrium dissociation constant (KD) by using a Biacore T-200 evaluation software (Table 18).

T1 sequence (Q13421 other isoform, or with tags, fused parts or gaps limits assumed): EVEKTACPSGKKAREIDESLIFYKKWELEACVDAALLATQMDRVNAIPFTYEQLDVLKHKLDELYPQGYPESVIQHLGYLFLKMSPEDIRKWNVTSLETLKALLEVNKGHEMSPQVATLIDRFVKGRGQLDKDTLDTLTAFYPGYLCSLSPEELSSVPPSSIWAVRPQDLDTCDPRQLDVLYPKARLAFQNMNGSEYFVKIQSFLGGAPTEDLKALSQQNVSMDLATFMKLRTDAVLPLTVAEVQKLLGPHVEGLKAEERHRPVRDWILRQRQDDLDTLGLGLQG

In order of falling Kd:
1. B3  0.234 nM
2. B1  0.166 nM
3. B6  0.165 nM
4. B4  0.163 nM
5. B7  0.125 nM
6. B5  0.0372 nM
7. B2  0.0163 nM

What follows are binders tested against T2, human mesothelin (MSLN) on the cell surface (human, UniProt Q13421 296-598) (assay: FACS on MiaPaCa-MSLN #2 cells, upper histogram and table).
T2 construct: also called MSLN of mesothelioma (H226, H2052) and pancreatic cancer (AsPC-1) cell lines; MSLN on MiaPaCa-MSLN #2 cells
T2 sequence (Q13421 other isoform, or with tags, fused parts or gaps limits assumed): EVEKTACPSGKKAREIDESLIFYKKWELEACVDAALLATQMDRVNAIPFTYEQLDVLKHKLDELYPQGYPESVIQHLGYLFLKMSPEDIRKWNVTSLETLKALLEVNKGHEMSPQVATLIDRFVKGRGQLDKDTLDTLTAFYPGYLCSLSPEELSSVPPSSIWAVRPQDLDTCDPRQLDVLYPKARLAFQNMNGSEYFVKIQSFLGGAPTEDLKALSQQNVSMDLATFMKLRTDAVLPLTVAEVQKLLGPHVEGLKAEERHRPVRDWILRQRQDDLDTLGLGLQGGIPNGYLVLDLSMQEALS

In order of rising “Mean, FL2-H” value:
1. B8  2280
2. B5  2280
3. B9  2880

Biological target: T1, recombinant human mesothelin (MSLN)
Assay: SPR, Biacore T-200; MSLN amine-coupled to CM5 chip, IgG in flow
Remark: another data set of the same source
Experimental: Quantitative binding force (affinity) of the purified anti-MSLN antibodies, i.e., MI323, MI329, MI403, MS502 clone antibodies with regard to recombinant human mesothelin (MSLN) was measured by using a Biacore T-200 (GE Healthcare, U.S.A.) biosensor. […] Then, […] serially diluted with HBS-EP buffer (10 mM HEPES, pH7.4, 150 mM NaCl, 3 mM EDTA, 0.005% surfactant P20) was allowed to flow at a concentration range of 0.078 nM to 5 nM and at a flow rate of 30 μL/min for association of 120 seconds and dissociation of 1800 seconds. The dissociation of the antibody bound to the MSLN was induced by flowing 10 mM Glycine-HCl pH 1.5 at a flow rate of 30 μL/min for 30 seconds (Table 7). The affinity was obtained as movement speed constants (Kₒₙ and Koff) and an equilibrium dissociation constant (KD) by using a Biacore T-200 evaluation software (Table 8).

In order of falling Kd:
1. B10  0.45 nM
2. B8  0.23 nM
3. B9  0.18 nM
4. B11  0.035 nM

What follows are binders tested against T2, human mesothelin (MSLN) on the cell … (assay: FACS on MSLN stable cell line (#2), left panels; sheet note: 1st Ab 1 µg (1st assay), 2nd Ab anti-human Fc antibody FITC).
Experimental: FACS test was performed on the MSLN present in the cell surface with regard to MiaPaCa-MSLN which is a cell line in which the MSLN was artificially expressed. Cells to be analyzed that were grown in a culture dish were separated by adding a Tryple Express solution and stored in a 50 mL tube, followed by centrifugation at 2000 rpm at room temperature for 3 minutes to decant the culture fluid, and the obtained product was washed once with PBS. The cells were suspended with FACS buffer, and transferred to a round bottom tube and centrifuged at 2000 rpm at room temperature for 3 minutes. The supernatant was discarded and the cells were well-loosened with the FACS buffer so as to have a cell density of 4×10⁵/mL. Then, 1 μg of candidate antibody was added thereto at 4° C. After 1 hour, the resultant material was washed with the FACS buffer twice, and goat-derived anti-human IgG antibody (FITC junction) was added in an amount of 1 μL for each sample to be combined at 4° C. for 30 minutes. The cells were collected by centrifugation at 2000 rpm for 3 minutes, and 500 μL of fixation buffer was added to resuspend the cells, and the cells were measured by FACS calibur (FIG. 6).
The FACS test was performed to evaluate whether the anti-MSLN antibody was selectively bound to the MSLN-overexpressing cell line (MiaPaCa-MSLN #2). The anti-MSLN candidate antibody was labeled by the method described in Example 4-2 above, and the cells were measured by FACS calibur (FIG. 7).

In order of rising “Mean, FL1-H” value:
1. B13  181
2. B12  225
3. B10  250
4. B8  293
5. B11  410
6. B9  419

Each binder was assayed against T1, recombinant human mesothelin (MSLN) (assay: ELISA, clone supernatant on MSLN-coated plate).
Experimental: Single colonies of a phage display synthetic scFv library final amplified population were collected, and cultured with 1.5 mL of SB/carbenicillin to an OD₆₀₀ of 0.8 to 1.0 at 37° C. and at 220 rpm, and then cultured with 1 mM IPTG at 30° C. and at 200 rpm for 12 hours or more. The reaction materials were centrifuged at 5500 rpm for 5 minutes, and only each supernatant was added to ELISA plates containing underlying MSLN antigen, and reacted at room temperature for 2 hours. Then, the resultant materials were washed with PBST (1×PBS, 0.05% tween 20) four times, and HRP/Anti-hFab-HRP conjugate diluted by 1/5000 with 1% BSA/1×PBS was added thereto, and reacted at room temperature for 1 hour, and washed with PBST (1×PBS, 0.05% tween 20) 4 times. Then, a TMB solution was added thereto and reacted for 5 to 10 minutes, and a TMB stop solution was added thereto. Next, O.D values were measured at a measurement wavelength of 450 nm using a TECAN sunrise, and clones having high O.D. value were secured as individual clones.

B14: binds.
B15: binds.
B16: binds.
B17: binds.
B18: binds.
